Assay [1] addresses HAdV-D48 fiber-knob protein (human adenovirus D serotype 48). The experiment in a line: crystal structure; sitting-drop vapour diffusion, 18 C, protein about 7.5 mg/ml in 10 mM Tris pH 8.0, 30 mM NaCl; data at 100 K, Diamond I04.
Assay [2] concerns the target Recombinant Human CXADR Fc Chimera Protein (CAR) (human) (UniProt P78310). The assay can be described thus: SPR; BIAcore 3000, CM5 chip, about 5000 RU of receptor (CD46, CAR or DSG2) amine-coupled; fiber-knob injected; single cycle kinetics, top concentration around 200 uM with four 1:3 dilutions; 25 C, PBS, 30 ul/min. For orientation: In SPR one partner is held on a chip, and binding of the other changes the refractive index at the surface.

Assay [3] deals with Recombinant Human CD46 Protein (His Tag) (human) (UniProt P15529). The assay can be described thus: SPR; BIAcore 3000, CM5 chip, about 5000 RU of receptor amine-coupled; equilibrium binding analysis of HAdV-D26K (367 uM) and HAdV-B3K (3 uM as printed), 5x 1:3 serial dilutions; 1:1 Langmuir fit; 25 C, PBS, 30 ul/min.
In assay [4] the target is HAdV-D26 fiber-knob protein (human adenovirus D serotype 26). The assay can be described thus: crystal structure; sitting-drop vapour diffusion, 18 C, protein about 7.5 mg/ml in 10 mM Tris pH 8.0, 30 mM NaCl; data at 100 K, Diamond I04.
Assay [5] deals with Recombinant Human Desmoglein-2 Fc Chimera Protein (human) (UniProt Q14126). The experiment in a line: SPR; BIAcore 3000, CM5 chip, about 5000 RU of receptor amine-coupled; equilibrium binding analysis of HAdV-D26K (367 uM) and HAdV-B3K (3 uM as printed), 5x 1:3 serial dilutions; 1:1 Langmuir fit; 25 C, PBS, 30 ul/min.
For assay [6], the target named is T1, Recombinant Human CXADR Fc Chimera Protein (CAR) (human, UniProt P78310).
T1 chain: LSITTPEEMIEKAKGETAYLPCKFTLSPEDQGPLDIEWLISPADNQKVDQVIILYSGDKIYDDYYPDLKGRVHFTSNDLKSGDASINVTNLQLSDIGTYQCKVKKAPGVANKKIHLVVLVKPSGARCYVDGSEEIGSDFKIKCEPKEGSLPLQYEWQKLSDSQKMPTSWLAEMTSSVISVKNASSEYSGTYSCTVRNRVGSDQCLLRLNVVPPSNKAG
The assay can be described thus: SPR.

Assay [7] deals with T2, Recombinant Human CXADR Fc Chimera Protein (CAR) (human, UniProt P78310).
T2 construct: human Coxsackie and Adenovirus Receptor (CXADR) part of a commercial Fc chimera; Probably the extracellular domain fused to human IgG1 Fc (recalled); source: bought: R&D Systems
T2 sequence: T1 chain
The assay can be described thus: SPR; BIAcore 3000, CM5 chip, about 5000 RU of receptor (CD46, CAR or DSG2) amine-coupled; fiber-knob injected; single cycle kinetics, top concentration around 200 uM with four 1:3 dilutions; 25 C, PBS, 30 ul/min. Particulars: both partners purified.

The target of assay [8] is T1, Recombinant Human CXADR Fc Chimera …. The assay can be described thus: SPR.
The target in assay [9] is T3, Recombinant Human CD46 Protein (His Tag) (human, UniProt P15529 35-343).
T3 chain: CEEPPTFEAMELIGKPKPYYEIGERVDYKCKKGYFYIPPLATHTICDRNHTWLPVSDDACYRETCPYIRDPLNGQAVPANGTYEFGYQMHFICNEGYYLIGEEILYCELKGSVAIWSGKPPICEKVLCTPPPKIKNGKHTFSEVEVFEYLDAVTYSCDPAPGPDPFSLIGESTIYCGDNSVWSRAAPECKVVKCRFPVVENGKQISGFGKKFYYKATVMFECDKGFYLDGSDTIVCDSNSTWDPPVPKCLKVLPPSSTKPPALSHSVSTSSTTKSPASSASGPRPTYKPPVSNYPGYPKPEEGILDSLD
The experiment in a line: SPR.

Assay [10] concerns the target T3, Recombinant Human CD46 Protein (His Tag). The experiment in a line: SPR.

Sequence of Recombinant Human Desmoglein-2 Fc Chimera Protein (human) (Q14126 50-609, stated change not applied): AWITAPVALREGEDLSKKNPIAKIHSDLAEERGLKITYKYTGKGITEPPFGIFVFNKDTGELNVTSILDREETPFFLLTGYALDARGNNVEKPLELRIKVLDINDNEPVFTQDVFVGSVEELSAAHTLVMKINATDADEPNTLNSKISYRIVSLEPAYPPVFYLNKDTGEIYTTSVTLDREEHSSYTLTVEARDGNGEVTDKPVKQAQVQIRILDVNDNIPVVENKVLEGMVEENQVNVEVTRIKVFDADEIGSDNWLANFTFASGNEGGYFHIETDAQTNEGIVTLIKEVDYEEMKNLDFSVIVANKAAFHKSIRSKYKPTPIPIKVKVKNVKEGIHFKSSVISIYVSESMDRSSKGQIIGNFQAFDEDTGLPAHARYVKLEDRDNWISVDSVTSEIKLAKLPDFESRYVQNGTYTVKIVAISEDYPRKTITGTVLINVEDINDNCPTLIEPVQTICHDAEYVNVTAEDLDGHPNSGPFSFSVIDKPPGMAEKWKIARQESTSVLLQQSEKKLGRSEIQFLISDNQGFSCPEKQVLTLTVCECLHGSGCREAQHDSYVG

“HAdV-D48 fiber-knob protein (domain or fragment)”: the stoichiometry N (commonly a count of units in the complex or per binding partner) in assay [1] was determined as 3. The fold higher affinity than HAdV-D26K in assay [2] is 2 fold.

As to “HAdV-D26 fiber-knob protein (domain or fragment)”, in assay [3], the fold weaker affinity (KD) than HAdV-B35K is above 1500 fold. This molecule also displayed a stoichiometry N in assay [4] of 3.

For “HAdV-B3 fiber-knob protein (from UniProt P04501 1-319) (domain or fragment)”, the Kd (in general, the free concentration of one partner at which half of the binding sites on the other are occupied at equilibrium, for simple one-to-one binding) in assay [5] is 66.9 µM.

B1: HAdV-D26 fiber-knob protein (domain or fragment)
chain: RRTLWTTPDTSPNCKMSTEKDSKLTLTLTKCGSQVLGNVSLLAVTGEYHQMTATTKKDVKISLLFDENGILLPSSSLSKDYWNYRSDDSIVSQKYNNAVPFMPNLTAYPKPSAQNAKNYSRTKIISNVYLGALTYQPVIITIAFNQETENGCAYSITFTFTWQKDYSAQQFDVTSFTFSYLTQE
Regarding B1, in assay [6], the dissociation constant Kd was found to be 21 µM.

B2: HAdV-C5 fiber-knob protein (domain or fragment)
chain: KNNDKLTLWTTPAPSPNCRLNAEKDAKLTLVLTKCGSQILATVSVLAVKGSLAPISGTVQSAHLIIRFDENGVLLNNSFLDPEYWNFRNGDLTEGTAYTNAVGFMPNLSAYPKSHGKTAKSNIVSQVYLNGDKTKPVTLTITLNGTQETGDTTPSAYSMSFSWDWSGHNYINEIFATSSYTFSYIAQE
notes: fiber-knob domain of the fiber protein (pIV) of human adenovirus species C serotype 5; Vector pQE-30 probably adds an N-terminal His6 tag (surmised); also called HAdV-C5K; HAdV-C5 fiber-knob domain
On to B2, for which the Kd in assay [7] is 0.00076 µM. Moreover, the koff (commonly a measure of how fast the partners let go of each other) in [8] amounted to 0.0016 s⁻¹.

B3: HAdV-D48 fiber-knob protein (domain or fragment)
chain: DKLTLWTTPDPSPNCKIDQDKDSKLTFVLTKCGSQILANMSLLVVKGKFSMINNKVNGTDDYKKFTIKLLFDEKGVLLKDSSLDKEYWNYRSNNNNVGSAYEEAVGFMPSTTAYPKPPTPPTNPTTPLEKSQAKNKYVSNVYLGGQAGNPVATTVSFNKETGCTYSITFDFAWNKTYENVQFDSSFLTFSYIAQE
For B3, the Kd in assay [6] worked out at 9.3 µM. Moreover, in assay [8], the koff stood at 0.0024 s⁻¹.

B4: HAdV-B35 fiber-knob protein (domain or fragment)
chain: TLWTGINPPPNCQIVENTNTNDGKLTLVLVKNGGLVNGYVSLVGVSDTVNQMFTQKTANIQLRLYFDSSGNLLTEESDLKIPLKNKSSTATSETVASSKAFMPSTTAYPFNTTTRDSENYIHGICYYMTSYDRSLFPLNISIMLNSRMISSNVAYAIQFEWNLNASESPESNIATLTTSPFFFSYITEDDN
B4: the Kd in assay [9] came to 0.027 µM. The koff in [10] came to 0.032 s⁻¹.

For the origin of these results see article PMC6376029, “Diversity within the adenovirus fiber knob hypervariable loops influences primary receptor interactions” (Nature Communications, 2019).
